Test results from patent publication US20060199247A1.

Molecular target: beef heart phosphodiesterase (Boeringer Mannheim) (beef)

Substance: calmodulin
- phosphodiesterase activity: 6.5 fold
